In US20250084183A1:

Biological target: CD99 on RD-ES and SK-ES-1 Ewing sarcoma cells (UniProt P14209)
Test: not stated (given with the antibody's description, refers to FIG. 57)

Kd: 10 nM
Substance: αCD99 antibody (clone: 12E7)
